This assay has as its target human D1-D2 truncated LAG-3-ECD-human IgG1 fusion protein (human) (UniProt P18627). Briefly: ELISA on coated ΔD1-D2 huFc; EC50 table has no unit, x axis Ab(nM); fit value of a flat curve.

human D1-D2 truncated LAG-3-ECD-human IgG1 fusion protein (human), sequence (P18627 253-450): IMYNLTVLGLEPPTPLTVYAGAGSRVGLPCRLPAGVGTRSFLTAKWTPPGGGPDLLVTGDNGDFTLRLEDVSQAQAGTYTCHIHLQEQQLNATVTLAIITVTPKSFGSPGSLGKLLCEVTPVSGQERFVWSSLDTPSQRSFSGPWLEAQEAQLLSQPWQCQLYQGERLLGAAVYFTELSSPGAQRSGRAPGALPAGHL

B1: 147H mouse monoclonal antibody (antibody, V domains shown)
VH: QVQLQQSGSELVRPGTSVKISCKASGYTFTNYWLGWIKQRPGHGLEWIGDIYPGGDYINYNEKFKGKATLSADTSSSTAYMQLSSLTSEDSAVYFCARPNLPGDYWGQGTSVTVSS
VL: DIVMTQAAFSNPVTLGTSASISCRSSKSLLHSNGITYLYWYLQKPGQSPQLLIYQVSNLASGVPGRFSGSGSGTDFTLRISRVEAEDVGVYYCAQNLELPWTFGGGTKLEIK
B1 showed an EC50 of 2.62 nM.

The values above are taken from patent US20220363763A1.
